One assay concerns the target MDM2 (UniProt Q00987 1-491). Nature of the assay: fluorescence polarisation.
Another assay addresses T1, MDMX (UniProt O15151 1-490).
T1 sequence: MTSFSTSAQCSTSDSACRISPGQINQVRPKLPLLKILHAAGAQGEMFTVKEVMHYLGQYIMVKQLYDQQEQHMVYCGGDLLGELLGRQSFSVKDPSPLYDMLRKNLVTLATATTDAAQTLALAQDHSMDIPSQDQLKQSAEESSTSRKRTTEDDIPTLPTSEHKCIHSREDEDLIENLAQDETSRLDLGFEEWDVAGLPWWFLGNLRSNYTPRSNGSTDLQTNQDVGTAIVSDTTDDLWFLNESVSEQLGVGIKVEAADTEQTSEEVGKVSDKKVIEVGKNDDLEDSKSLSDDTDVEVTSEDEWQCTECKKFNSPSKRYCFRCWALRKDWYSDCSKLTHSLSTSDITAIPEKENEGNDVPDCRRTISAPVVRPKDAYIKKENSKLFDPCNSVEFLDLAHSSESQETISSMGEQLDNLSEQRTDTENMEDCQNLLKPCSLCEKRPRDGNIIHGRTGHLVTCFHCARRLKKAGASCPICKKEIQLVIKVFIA
As to the kind of experiment: fluorescence polarisation.

Sequence of MDM2 (Q00987 whole entry): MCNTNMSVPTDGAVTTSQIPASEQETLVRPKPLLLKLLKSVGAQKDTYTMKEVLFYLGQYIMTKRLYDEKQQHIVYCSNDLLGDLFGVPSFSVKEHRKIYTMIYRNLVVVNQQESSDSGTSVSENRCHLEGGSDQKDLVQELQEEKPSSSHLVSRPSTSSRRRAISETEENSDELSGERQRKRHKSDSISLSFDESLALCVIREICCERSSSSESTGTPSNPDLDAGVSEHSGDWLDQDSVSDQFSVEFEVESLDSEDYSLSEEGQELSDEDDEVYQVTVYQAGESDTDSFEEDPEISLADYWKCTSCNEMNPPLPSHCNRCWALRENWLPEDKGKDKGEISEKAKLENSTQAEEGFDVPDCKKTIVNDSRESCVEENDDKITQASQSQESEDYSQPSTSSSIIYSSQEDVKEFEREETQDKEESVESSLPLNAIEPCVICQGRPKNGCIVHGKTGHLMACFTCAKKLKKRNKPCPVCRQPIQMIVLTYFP

B1: PF4P_pDI (designed binder)
chain: LTFEHYWALLT
modifications: C-terminal amide
B1: the IC50 in the assay with MDM2 and with MDMX was below 1 nM throughout.
